Molecular target: the molecule itself
Assay: SEC-MALS; purified Lip-VIN3VEL at increasing concentrations from 50 uM to 1250 uM; Superose6 Increase 10/300 column

Row | Protein | binding result
1 | Lip-VIN3VEL (residues 500-603) wild type (domain or fragment, Arabidopsis thaliana, UniProt Q9FIE3 500-603, looked up, VIN3 VEL domain construct, Arabidopsis thaliana, residues 500-603; The end of the tag is read from the name Lip-VIN3VEL; also called WT VIN3VEL; 6xHisLip-tagged VIN3VEL; source: Escherichia coli, purified; not shown: 6xHis-Lip (lipoyl solubility tag), N-terminal, kept) GKQGGNKRFKSRTVSLNEKPEINNAANGVGDKDLGHIVKTIRCLEEEGHIDKSFRERFLTWYSLRATHREVRVVKIFVETFMEDLSSLGQQLVDTFSESILSKR | binds
2 | Lip-VIN3VEL (residues 500-603) I575T (domain or fragment, Arabidopsis thaliana, UniProt Q9FIE3 500-603, looked up, VIN3 VEL domain construct, Arabidopsis thaliana, residues 500-603, with I575 changed to the threonine found at the corresponding position of VRN5; The end of the tag is read from the name Lip-VIN3VEL; also called I575T mutant Lip-VIN3VEL; VIN3VEL I575T; source: Escherichia coli, purified; not shown: 6xHis-Lip (lipoyl solubility tag), N-terminal, kept) GKQGGNKRFKSRTVSLNEKPEINNAANGVGDKDLGHIVKTIRCLEEEGHIDKSFRERFLTWYSLRATHREVRVVKTFVETFMEDLSSLGQQLVDTFSESILSKR | binds
